Experimental data taken from patent publication US20240301086A1 (APTEVO RESEARCH AND DEVELOPMENT, published 2024).
Blank lines part the entries; values can stand above or below the binder they belong to.

How the values were obtained:
mIgG Fc-cyno PSMA ECD = target: T1, mIgG Fc-cyno PSMA ECD (cynomolgus monkey); assay: SPR (Biacore T200), bispecific amine-coupled, mFc-PSMA dimer 1-81 nM as analyte, 1:1 fit
T1 construct: Called PSMA dimer in the SPR method; also called mFc-Cyno PSMA ECD; murine Fc-tagged cyno PSMA ECD
T1 chain: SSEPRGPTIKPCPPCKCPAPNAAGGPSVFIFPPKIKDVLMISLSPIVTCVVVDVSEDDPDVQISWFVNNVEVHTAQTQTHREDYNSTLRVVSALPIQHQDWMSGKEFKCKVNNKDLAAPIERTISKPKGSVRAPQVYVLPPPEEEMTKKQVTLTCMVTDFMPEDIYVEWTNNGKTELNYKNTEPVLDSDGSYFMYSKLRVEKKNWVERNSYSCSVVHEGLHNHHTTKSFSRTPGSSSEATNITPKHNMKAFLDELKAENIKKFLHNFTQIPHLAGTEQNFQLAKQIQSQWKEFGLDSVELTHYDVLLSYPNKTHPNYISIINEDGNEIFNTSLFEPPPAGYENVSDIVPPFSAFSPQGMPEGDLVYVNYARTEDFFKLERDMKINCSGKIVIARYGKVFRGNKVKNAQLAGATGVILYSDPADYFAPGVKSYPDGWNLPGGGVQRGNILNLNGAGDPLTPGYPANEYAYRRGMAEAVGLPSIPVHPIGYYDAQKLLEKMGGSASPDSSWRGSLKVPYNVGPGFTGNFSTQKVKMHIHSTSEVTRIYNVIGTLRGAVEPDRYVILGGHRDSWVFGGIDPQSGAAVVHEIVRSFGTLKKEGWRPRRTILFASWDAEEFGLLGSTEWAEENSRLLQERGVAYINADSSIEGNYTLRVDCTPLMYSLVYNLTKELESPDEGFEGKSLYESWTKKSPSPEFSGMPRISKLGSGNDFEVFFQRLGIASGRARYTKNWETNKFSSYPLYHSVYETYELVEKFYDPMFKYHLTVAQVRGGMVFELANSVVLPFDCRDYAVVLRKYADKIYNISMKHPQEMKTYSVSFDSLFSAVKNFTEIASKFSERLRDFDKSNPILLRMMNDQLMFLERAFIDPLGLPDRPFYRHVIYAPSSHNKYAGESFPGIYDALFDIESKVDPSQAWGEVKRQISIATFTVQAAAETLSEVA
Description: (§1) SPR studies were performed on a subset of bispecific constructs binding to Human and cynomolgus primate PSMA ectodomain (ECD) fused to the c-terminus of a murine IgG1 Fc region. These experiments were conducted at 25° C. in dPBS (Gibco, 14040-133) with 0.2% BSA buffer on a Biacore T200 system. Bispecific constructs were immobilized at a density of ˜2,000-4,000 response units (RU) onto individual flow cells of a CM5 research-grade sensor chip (GE) by standard amine coupling chemistry, leaving one flow cell surface unmodified as the reference. Using a multi-cycle kinetics mode, a buffer blank and […] different concentrations of the PSMA dimer ranging from 1 nM to 81 nM in dPBS with 0.2% BSA were sequentially injected through each flow cell at 30 μL/min for 300 seconds followed by a 600 second dissociation phase. Regeneration was achieved by injection of 10 mM glycine pH 2.0 at a flow rate of 30 μL/min for 40 seconds followed by dPBS with 0.2% BSA buffer stabilization for 1 min.
(§2) Sensorgrams obtained from kinetic SPR measurements were analyzed by the double subtraction method. The signal from the reference flow cell was subtracted from the analyte binding response obtained from flow cells with captured ligands. The buffer blank response was then subtracted from analyte binding responses and the final double-referenced data were analyzed with Biacore T200 Evaluation software (2.0, GE), globally fitting data to derive kinetic parameters. All sensorgrams were fitted using a simple one-to-one binding model.

mIgG Fc-human PSMA ECD = target: T2, mIgG Fc-human PSMA ECD (human); assay: as above
T2 construct: Called PSMA dimer in the SPR method; also called mFc-Hu PSMA ECD; murine Fc-tagged human PSMA ECD
Description: as §1, §2

[1] = target: T3, recombinant human FcRn/b2M complex (human, UniProt P55899 24-297; P61769 21-119, limits assumed); assay: SPR at pH 6.0, hFcRn/b2M amine-coupled, construct 1-81 nM as analyte, two-state reaction model fit
T3 construct: also called hFcRn/b2M; neonatal Fc receptor
Description: (§3) Recombinant FcRn/b2M protein was generated via transient transfection of HEK-293 cells with a bi-cistronic vector containing the genes for both FcRn and […]. The complex was purified using IMAC chromatography and subsequently buffer exchanged into PBS buffer after verifying purity of the IMAC eluate by analytical SEC. Purified hFcRn/b2M at 5 μg/ml in 10 mM sodium acetate (pH 5.0) was immobilized on a CM5 chip by direct amine coupling chemistry to a level of ˜400 RU. A reference flow cell was left blank.
(§4) Different concentrations of the Fc variant protein (1-81 nM by 3-fold dilutions in HBS-EP+ with 0.2% BSA running buffer at pH 6.0) including running buffer as blank were injected in randomized order at 30 μL/min for 180 seconds followed by a 180 second dissociation period. Optimal regeneration was achieved by two injections of HBS-EP+ with 0.2% BSA at pH 7.5 at a flow rate of […] for 30 seconds followed by running buffer stabilization for 1 minute.
(§5) Sensorgrams obtained from kinetic SPR measurements were analyzed by the double subtraction method. […] Buffer reference was subtracted from analyte binding responses, and the final double-referenced data were analyzed with Biacore T200 Evaluation software (2.0, GE), globally fitting data to derive kinetic parameters. […]

[2] = target: T3, recombinant human FcRn/b2M complex; assay: SPR at pH 6.0, hFcRn/b2M amine-coupled, construct 1-81 nM as analyte, steady-state affinity model
Description: as §3, §4, §5

Kd (mIgG Fc-cyno PSMA ECD): 4.4 nM | Kd (mIgG Fc-human PSMA ECD): 3 nM | Kd [1]: 47 nM | Kd [2]: 59 nM
B1: PSMA01107 Anti-PSMA scFv x Fc x linker x Anti CD3 scFv; Anti PSMA scFv x Fc (bispecific antibody)
chain 1: QVQLVQSGAEVKKPGASVKVSCKASGYTFTDYYMHWVRQAPGQGLEWMGYFNPYNDYTRYAQKFQGRVTMTRDTSTSTVYMELSSLRSEDTAVYYCARSDGYYDAMDYWGQGTTVTVSSGGGGSGGGGSGGGGSGGGGSDIQMTQSPSSLSASVGDRVTITCRASKSISKYLAWYQQKPGKAPKLLIHSGSSLESGVPSRFSGSGSGTEFTLTISSLQPDDFATYYCQQHIEYPWTFGQGTKVEIKEPKSSDKTHTCPPCPAPPAAAPSVFLFPPKPKDTLMISRTPEVTCVVVDVSHEDPEVKFNWYVDGVEVHNAKTKPREEQYNSTYRVVSVLTVLHQDWLNGKEYKCAVSNKALPAPIEKTISKAKGQPREPQVYTLPPSRDELTKNQVSLWCLVKGFYPSDIAVEWESNGQPENNYKTTPPVLDSDGSFFLYSKLTVDKSRWQQGNVFSCSVMHEALHNHYTQKSLSLSPGGGGSPSQVQLVQSGAEVKKPGASVKVSCKASGYTFTRSTMHWVRQAPGQGLEWIGYINPSSAYTNYAQKFQGRVTLTADKSTSTAYMELSSLRSEDTAVYYCASPQVHYDYNGFPYWGQGTLVTVSSGGGGSGGGGSGGGGSGGGGSDIQMTQSPSSLSASVGDRVTITCRASSSVSYMNWYQQKPGKAPKRWIYDSSKLASGVPSRFSGSGSGTDFTLTISSLQPEDFATYYCQQWSRNPPTFGQGTKVEIKRS
chain 2: QVQLVQSGAEVKKPGASVKVSCKASGYTFTDYYMHWVRQAPGQGLEWMGYFNPYNDYTRYAQKFQGRVTMTRDTSTSTVYMELSSLRSEDTAVYYCARSDGYYDAMDYWGQGTTVTVSSGGGGSGGGGSGGGGSGGGGSDIQMTQSPSSLSASVGDRVTITCRASKSISKYLAWYQQKPGKAPKLLIHSGSSLESGVPSRFSGSGSGTEFTLTISSLQPDDFATYYCQQHIEYPWTFGQGTKVEIKEPKSSDKTHTCPPCPAPPAAAPSVFLFPPKPKDTLMISRTPEVTCVVVDVSHEDPEVKFNWYVDGVEVHNAKTKPREEQYNSTYRVVSVLTVLHQDWLNGKEYKCAVSNKALPAPIEKTISKAKGQPREPQVYTLPPSRDELTKNQVSLSCAVKGFYPSDIAVEWESNGQPENNYKTTPPVLDSDGSFFLVSKLTVDKSRWQQGNVFSCSVMHEALHNHYTQKSLSLSPG
notes: Heterodimer, bivalent for PSMA and monovalent for CD3 (VH-VL scFv at the C-terminus); also called PSMA1107

Kd [1]: 19 nM | Kd [2]: 27 nM
B2: PSMA01108 Anti-PSMA scFv x Fc x linker x Anti CD3 scFv; Anti PSMA scFv x Fc (bispecific antibody)
chain 1: QVQLVQSGAEVKKPGASVKVSCKASGYTFTDYYMHWVRQAPGQGLEWMGYFNPYNDYTRYAQKFQGRVTMTRDTSTSTVYMELSSLRSEDTAVYYCARSDGYYDAMDYWGQGTTVTVSSGGGGSGGGGSGGGGSGGGGSDIQMTQSPSSLSASVGDRVTITCRASKSISKYLAWYQQKPGKAPKLLIHSGSSLESGVPSRFSGSGSGTEFTLTISSLQPDDFATYYCQQHIEYPWTFGQGTKVEIKEPKSSDKTHTCPPCPAPPAAAPSVFLFPPKPKDTLMISRTPEVTCVVVDVSHEDPEVKFNWYVDGVEVHNAKTKPREEQYNSTYRVVSVLTVLHQDWLNGKEYKCAVSNKALPAPIEKTISKAKGQPREPQVYTLPPSRDELTKNQVSLWCLVKGFYPSDIAVEWESNGQPENNYKTTPPVLDSDGSFFLYSKLTVDKSRWQQGNVFSCSVMHEALHNHYTQKSLSLSPGGGGSPSDIQMTQSPSSLSASVGDRVTITCRASSSVSYMNWYQQKPGKAPKRWIYDSSKLASGVPSRFSGSGSGTDFTLTISSLQPEDFATYYCQQWSRNPPTFGQGTKVEIKGGGGSGGGGSGGGGSGGGGSQVQLVQSGAEVKKPGASVKVSCKASGYTFTRSTMHWVRQAPGQGLEWIGYINPSSAYTNYAQKFQGRVTLTADKSTSTAYMELSSLRSEDTAVYYCASPQVHYDYNGFPYWGQGTLVTVSS
chain 2: B1 chain 2
notes: also called PSMA1108; PSAM01108
